From the domain aggregation screens of Martell et al. (2025)

Experiment: soluble fraction after stress (log2 fold change); higher = more stays soluble; pooled small domains, quantitative proteomics
Conditions: stress: pH 4
Method in brief: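 Aggregation propensity here comes from the fold change in the soluble amount of each small protein domain after acid stress, measured in pooled custom libraries by high-throughput quantitative proteomics. The acid stress was pH 4. On the log2 scale, higher values mean more of the domain stayed soluble.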

Going from “HMNKNLQLMINEIKKGLASEDIETRKKSVLMLSRIDAPEIIQVLEPLKDDSSEEIRKISSKIISVLSKKYT” to “HMPKHHIESVIPENFAGERLDKVLAVLWGTFSRAQLTRWIRDGSLLLDGHKVKPNTKVDGSEKIVLQAEVA”, the “soluble fraction (log2)” value falls from 0.332 to 0.0479.

“HMFDDLSTNLRDLAHNYIEKYSPSKQQLKVFLLKKYLMKFKGSKTKKEISEIIDKIISNLEENKYLNDEL” and “HMAPDYYALLGVPRNATTAEVRKAFRGKALEQHPDRGGDEESFRLLSKAYDVLSDSERRKYYDRTG” are within 0.2 log units of each other in “soluble fraction (log2)” value: 0.179 for the first, 0.14 for the second.

“HMETVMYLRQIKRPQGIYLAIQESYYDSSKKQSRTRTIESIGYLDNLRKEYEDPIAFFSQKAAAMTSEKKK” and “HMNIGEKIKKIRTQQNKSTYELADIINKNGFKISQSAISKIENGRKKIDIETLEEIAKALDIEVDLLIT” are within 0.2 log units of each other in “soluble fraction (log2)” value: -0.177 for the first, -0.282 for the second.

Compared with “HMKEADVRKNEILDAAGILFSEKGYDNTSVTDIMNAVGFAKGTLYHHFKSKEDIMDALIKRQTD”, “HMIENMQEYVRHIRAAVSDRLDLTREVEDDEIREVISQIVAEESRQNYLSLGERQTVIETVFNSMR” is lower in “soluble fraction (log2)” value: -0.61 for the first, -2.17 for the second.

First: HMSFNISPTKKLILELIMNGTAAVEAIAVKAGISKGMAYNHLRELRSMGYITDEGGYKITDSGRLAV
Second: HMPESYFEMLQKLLETYALPQEGTIYFSAADLARMPQKFEDVIEQTAQKKGGHLVVSKEPKDMDGGFVLV
The “soluble fraction (log2)” value of the first is higher: -0.399 for the first, -1.62 for the second.

Going from “HMDRKFFYEDQYQDYLGEELKVSFFDTDNKKTVRGTLSEVTPHGIKINLEQETQEIPFSSIIQANLI” to “HMAKLGITQREQEVLQLLVTGKTYKEIAAELFISLPTVKTHVSNIYSKAKVRNRLELSNLINYI”, the “soluble fraction (log2)” value falls from -0.44 to -1.22.

“HMSSHNIALDQDVVVTQLKGKVYLVAADGSQKQLAEGDILPKDAVLITPEGASFKGGNQTFTLS” and “HMANFGSILRNLRISRDITQSELAAKLGVSRSTVGMYETGAREPDFEAMEAIADTFNVDMDYLVGRSQ” are within 0.2 log units of each other in “soluble fraction (log2)” value: -0.235 for the first, -0.326 for the second.

Compared with “HMKPLAQQVNDYLAATRTSIATLANEIPGYSRPTISRYLAGKYDGDITTIEKLLAEWLAQRTG”, “HMGTPEQVVVSSVLKETNEIVLKWPADGFMAKYKMDNLNLNFEPVHGQGVMGYFIGSRLIKLELV” is higher in “soluble fraction (log2)” value: -0.581 for the first, -0.33 for the second.

Compared with “HMFQYEKIKDYILTGLEEGTWQAGDKIPSEAELVMSLNVSRMTVNRAVRELANSGLLVRIPGAGTFVATE”, “HMQTMTDDQVMQYVISQQEKGATQQDIVSKLLQKGVTVDQMRRIRKKYEAQQSQPGALDLTGSS” is higher in “soluble fraction (log2)” value: -0.886 for the first, -0.0786 for the second.

Compared with “HMASMHDGVAARLRAMVFERELAPGEFIDERRLAQQWQISRTPLREALKVLAAEGLVELVPRRGARVV”, “HMPEGTYLEKLAIENNNLQLIGLSREASQLVQLLQDAPQWRKVNLTGVLQADGAASGRDRFTMTAELQ” is higher in “soluble fraction (log2)” value: -0.275 for the first, 0.187 for the second.

Going from “HMDLSLQTFNELKTELTNNKITIDQFSEKINEFDITSDIFEISRELFLDDTLSLEDYLVVIENVLIN” to “HMRLPNHYGSVVKLSGKRRRPFMVRGGVYGYDDRGYPQYVIVGYTETREQGLTMLAEYNRNP”, the “soluble fraction (log2)” value rises from -0.782 to -0.319.

“HMQISDDSELIKIVDNILANSQKQIDDYHNGKTNLFGFFVGQVMKETKGKANPVKVNEILKDKL” and “HMKTMSLSSIEKAIYKTKYENEPTSQRLSRIESSVFGTNFSQDSESERIARISSAINAQKSAK” are within 0.2 log units of each other in “soluble fraction (log2)” value: 0.102 for the first, 0.22 for the second.

“HMPSHALFWTLLKEVPGYDPHYKDVIKEGIVHEHSGGRTTSLSEMYTKYPREYSLMIEAMKG” and “HMGGGEYTVAKGDTLWKIAAQTLGSPTRYAEIYNLNKDVIEETARGRGKRDSSNGHWLFPGTALKIPGT” are within 0.2 log units of each other in “soluble fraction (log2)” value: -0.326 for the first, -0.234 for the second.

Going from “HMVKVSVYPNPAVDRITISGEVKAYAVYDATGKVVMKDTDYRGGAIGVSHLPAGIYIVRTDAGAVTVNK” to “HMIKILGSAYRHGLDDDDILRAWNYHIQEFFEGEDPEKIVRLGFDTHGRLLEIGGEIYPGGGEKIFHAM”, the “soluble fraction (log2)” value falls from -0.246 to -0.719.

“HMNSVKSPMPGTILGLKVSVGDTVKVGDELLVLESMKMENMINSPIDGTVSKILISEGDSVQHGQELII” and “HMSEKELTDLIERIKERRLKLEMSYQDLSDATGISKSTLQRYETGYIKKVPINQIEILAKALHTTPSYLMG” are within 0.2 log units of each other in “soluble fraction (log2)” value: 0.102 for the first, 0.0791 for the second.

First: HMSDEINYVIQINGKNRAEAEFGANLDKESIENLALEHERIKELLNGLTVRKIIVVPKKLVNIVA
Second: HMKTGNIITVSLVWKGKYYMIRMFFPSASRPTRSDVQNEIEKVYPGSKLSTFSVSDYEPGQPLLQV
The “soluble fraction (log2)” value of the first is higher: 0.178 for the first, -0.092 for the second.

Going from “HMNETLKQIRINALQYSEKDMATKLGLPLSEYKEIENDKPLNFTLLIRLSQAVGKTIDDLLNAQ” to “HMQAPAFDYSKVQEGVTVNHKIFGDGTVSWIDKARKYIRVQFSVGEKMFTMETAFVQGFLSL”, the “soluble fraction (log2)” value falls from -0.128 to -1.03.

“HMSPPALAVQRDGSNVQISWPGAEEGWRLESSAEPSGAAWDLIAQNPTPVGGRWTVSLTEPTGRRFYRLVK” and “HMTATDRQLQLIAYTAARLMAEQGIADFNAAKRKAIQTLGLPNNAKLPGNADVEAQLRAYQRIF” are within 0.2 log units of each other in “soluble fraction (log2)” value: 0.039 for the first, 0.0539 for the second.

Compared with “HMVPEETKQFINQLNHGSLSIRMNAANNLEKLGLLAIPEIEAALPKAHGEAAFRLPRLLHALVLRETEYF”, “HMSELADDPVYTALEKAADKAGLQLTVRILNDLADAVLKRGKKKLTAAQAGKVIARAESELAKSRID” is higher in “soluble fraction (log2)” value: 0.0598 for the first, no less than 0.43 for the second.

“HMQVTEVDYGTFMKMVEEKNVGEVEVGNSMIVFTDKDGKAIYKTGAMNDPNLTERLYNAGASFTKE” and “HMAGLYSLLLVELPMERLPEDLPAIKAAWLKTGDTEAFKVALQAMSSRGWTIAVPGKHRDTQMTQL” are within 0.2 log units of each other in “soluble fraction (log2)” value: -0.209 for the first, -0.235 for the second.

“HMDGMRASDMVRAALAGAGKTQKELAEHMGWTPQNLSGRLKNNSLTFDELSKALHFAGYEVSMSDANGAG” and “HMDYGSISFINWSIEVLSVIKTRLDRGDKIIDEVSGEKYTASSFEKFVRKNFSSYIFSQVYAEDHKK” are within 0.2 log units of each other in “soluble fraction (log2)” value: -0.115 for the first, -0.016 for the second.

First: HMSPDLNEVEEKVFRALNGVESMHVNKLGIELNLPVSELFFTLLELEMKNVVKALPGGMYKL
Second: HMGQLVYPAGVYDVNKSYITDSNSAPYVLDKTDNNYYVLNTQMTWKGTEQDNKTPSQSYEESGGSVWLLFD
The “soluble fraction (log2)” value of the first is lower: -1.1 for the first, -0.59 for the second.

“HMESRRVTLLLPYDKAGIADTLRREAAVLSLEYGEDGVTVEAVVKPELWGLVREYVQNDNPK” and “HMVTTADIILEFYSRNPNATLTQAAQHVARATGTTYSRQAISAQLKRLEVAGLVERNGHVTV” are within 0.2 log units of each other in “soluble fraction (log2)” value: -0.319 for the first, -0.47 for the second.

Going from “HMKVEFDAMDKRILELMAKEYDTVLMARHLPLTPIVIDVRKKRIREVLNLPDATDAEIVIEAKEKDII” to “HMPELPPHELLRALMVEHDIKQSELPEVGPQPVVSDVLAGKRALNLRQVAALAARFHVPMEVFT”, the “soluble fraction (log2)” value rises from -1.47 to -0.015.

“HMKLVAAGYHQNRLLVLLGIQAEELQAKRLLASFDRFRGREATPKPPIHDSARRWLRDTYHHVMNQVPVEL” and “HMHDITPAVAETFKQLRAERGLSLSQAAQLTGVSKAMLGQIERGQSSPTVSTLWKIATGFNVAFSVFL” are within 0.2 log units of each other in “soluble fraction (log2)” value: -0.432 for the first, -0.309 for the second.

First: HMRKTYHVDAYQDDKWWVLQVQEMPNAISQVKSLDQADEWIREAINIVSNEPEDSFDVVIIPV
Second: HMDKFTYVVKKEDEQYQIKDILRHNFTFSSRLRKKLKQNNSIFLNGAETVGWATPKEGDIISVRLP
The “soluble fraction (log2)” value of the first is lower: -1.54 for the first, 0.219 for the second.

Compared with “HMASQEESVATYIQDYYRNPKTGESMVSDDMVEEFYKTHPEWEDQADGSKEGMEAVLDNFNEFFEINYG”, “HMGVAFAPVEKIKHTKTGNELYAVKLAGRVEAEVFGQLRQKAKEYDGYYSKFSRAFLFSTPEDAEAFRAE” is higher in “soluble fraction (log2)” value: -0.136 for the first, 0.276 for the second.

First: HMDVPNLVGKTLEEAENELKKLNIRYNVTERADEAPKDTVIEQSPKPYEAMEPGTVVNLVISSGPA
Second: HMEPMTDQQILEGFAEFKRQNPDLMNRPATQAIVNLTLPGGTPISFRSGAGAAALNQYLESIGMRAGP
The “soluble fraction (log2)” value of the first is lower: -0.912 for the first, -0.0242 for the second.

Compared with “HMSTRKAFVNGDGVRLRSGPGTNHSIRASLTKGQTVFVTGTKDGWASVSVQGGASGWVSADLLKYE”, “HMWSAREQVVNSLREAILTSELKAGERLVLSDLSARLGVSVTPIREALQSLEREGLVQLMPHQEAVVV” is lower in “soluble fraction (log2)” value: 0.237 for the first, -0.409 for the second.

Compared with “HMTYGYFELKAKNLDSLKQFLKGIAQVESIEEENNGLKVFLKNELESEELSEKLAEAKIFVSHLAKKK”, “HMYYNQGILKSGASVYGEPGITSSHRLEIPSGSFVDIVQEKDEWVYYEKNHVNHGWVLRENIYIPSL” is higher in “soluble fraction (log2)” value: -0.617 for the first, 0.23 for the second.

Compared with “HMLDFGQEDSEAVSEIILVLGRYWMDFSHKKYPEAEGSALRHKGISHIFTVLKPYLTSATAQLIEQRLQQ”, “HMDKSRPVLRVGDSGDWVSKLQTALLEFGYRVAVDGVFGEHTKSAVVHFQNGRRLIADGVVGNLTWDALL” is lower in “soluble fraction (log2)” value: -0.398 for the first, -0.968 for the second.

Compared with “HMRPTDVLNYDESMRILNFSNNRVGFKHLMDAKGIEQVIFKNRKIGYRKSEILALKSELEAEQK”, “HMKNLNVIDLSALRTLELKESSDWTLIQKRFKLLVKKYHPDMNAGSKQYEEKLKKITLAYTHLKKLF” is lower in “soluble fraction (log2)” value: -0.0346 for the first, -0.715 for the second.

Going from “HMEDLGYVKVASQTAAIRKSAAVQAGQIGTVHEGETYRYLGEEEGWYLVEYNGQKAYISWDDGEL” to “HMITNSTEIEAMIDSLIKENPEQAEQYRNGNTKVVGWFVGQMMKASKGKANPQVVGDLLAQKLVG”, the “soluble fraction (log2)” value falls from -0.553 to -0.821.

Going from “HMTKNEFLQGLKEELEGRVTHSAIQENIRYYDDYISQEVLKGSTEEEVTESLGGPRIIARTIVDAAYD” to “HMNNIIYLIANKLDVGKRLDQFITIRTEFSRQRVINLIEDGYVKLNNKIINLKKYKIKGDEKIEITIPEIR”, the “soluble fraction (log2)” value rises from -2.29 to -1.49.

“HMGQKETIVDLLKTNGTMTQLALAEAIYGDKNHGPNIYSVLMGRVNSGAVLRTGSQPAYYSLSG” and “HMLLTHEEQIVKRGWQAPVGPFAILDSRAEAMHGDLEMLRGDREAAEQHFRRAWQIIGPIVEQ” are within 0.2 log units of each other in “soluble fraction (log2)” value: 0.22 for the first, 0.0572 for the second.

First: HMTNLKALRESKGVSQQTVADYLGITRQAYGNYETGKRQADYAALLRLAAFFGVSVDALLQP
Second: HMALPDSEKRQWLVDEVNERGLKLPDDVLEYLFARVGRSQAHLVDVIEKLDFESLAQSRKLTIPFVREVLK
The “soluble fraction (log2)” value of the first is higher: 0.102 for the first, -0.753 for the second.

First: HMGRSTQVPGVEKMTYSQAVQLLHDHGFRVDIRDSLYRDDIKPGHVIEQFPKAKSIVKPGRKIFLYINAV
Second: HMFDFMVLGQAIKKARESKEMTREQLAEILDVAPRHIQSIENEGQYPSFPLFIRLVTMFNISVDQY
The “soluble fraction (log2)” value of the first is higher: 0.105 for the first, -1.4 for the second.

First: HMDSILMPGVVNKELREALAILKNEGIGWADPEYASSTVTRNYVISTDPVEGIELAPGQKVRLVVSLGPKP
Second: HMQYDSYTVEEPAKLLDWLLAHLRQSRTKIKATLQGHGIKVNGKTVTQFDYPLEPGMKIRVSLTK
The “soluble fraction (log2)” value of the first is higher: 0.153 for the first, -0.622 for the second.
